# According to the supplement of paper PMC9112550, “Optimization of the antimicrobial peptide Bac7 by deep mutational scanning” (BMC Biology, 2022):
# System: Escherichia coli TOP10
# Test: shrunken log2 fold change of peptide-encoding DNA abundance (4.5 h post-induction vs induction); higher = less antimicrobial activity (less host growth inhibition)
# Settings: time post-induction: 4.5 h; library: site-saturation at positions 5, 18, 19, 20
# 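Further: peptides expressed intracellularly from a pBAD plasmid library in pooled LB shake-flask culture, induced with 0.3% L-arabinose, DNA abundance read by NGS, three biological replicates, DESeq2 with apeglm shrinkage.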
row,Sequence,shrunken log2 fold change
1,RRIRNRPPRLPRPRPRPQCNPRP,-0.468
2,RRIRCRPPRLPRPRPRPKAGPRP,0.251
3,RRIRRRPPRLPRPRPRPLILPRP,0.0353
4,RRIRRRPPRLPRPRPRPQTPPRP,0.881
5,RRIRKRPPRLPRPRPRPKKKPRP,0.0709
6,RRIRMRPPRLPRPRPRPDISPRP,-0.0568
7,RRIRKRPPRLPRPRPRPEIPPRP,-0.00514
8,RRIRYRPPRLPRPRPRPSEGPRP,0.0169
9,RRIRVRPPRLPRPRPRPDTRPRP,-0.129
10,RRIRTRPPRLPRPRPRPFGYPRP,0.0679
11,RRIRYRPPRLPRPRPRPRADPRP,0.0349
12,RRIRERPPRLPRPRPRPGDWPRP,0.212
13,RRIRKRPPRLPRPRPRPAWYPRP,0.205
14,RRIRTRPPRLPRPRPRPGDTPRP,-0.0833
15,RRIRWRPPRLPRPRPRPCIFPRP,-0.683
16,RRIRARPPRLPRPRPRPWWAPRP,0.289
17,RRIRWRPPRLPRPRPRPTQDPRP,0.755
18,RRIRCRPPRLPRPRPRPNCKPRP,-0.138
19,RRIRCRPPRLPRPRPRPVHRPRP,-0.319
20,RRIRVRPPRLPRPRPRPKMWPRP,0.0893
21,RRIRTRPPRLPRPRPRPYCEPRP,-0.416
22,RRIRYRPPRLPRPRPRPFLLPRP,-1.19
23,RRIRCRPPRLPRPRPRPWALPRP,0.0591
24,RRIRCRPPRLPRPRPRPICSPRP,0.0973
25,RRIRIRPPRLPRPRPRPIFKPRP,-0.226

row,Sequence,shrunken log2 fold change
1,RRIRMRPPRLPRPRPRPDWSPRP,-0.0229
2,RRIRFRPPRLPRPRPRPVDQPRP,0.0138
3,RRIRVRPPRLPRPRPRPWLVPRP,0.128
4,RRIRNRPPRLPRPRPRPSNIPRP,-0.28
5,RRIRHRPPRLPRPRPRPCDAPRP,-0.0305
6,RRIRCRPPRLPRPRPRPIWPPRP,0.415
7,RRIRRRPPRLPRPRPRPKGMPRP,0.218
8,RRIRRRPPRLPRPRPRPVPIPRP,0.137
9,RRIRIRPPRLPRPRPRPCPVPRP,-0.523
10,RRIRFRPPRLPRPRPRPSFKPRP,-0.683
11,RRIRVRPPRLPRPRPRPDRGPRP,-0.0555
12,RRIRPRPPRLPRPRPRPAIVPRP,0.119
13,RRIRNRPPRLPRPRPRPCPEPRP,0.113
14,RRIRRRPPRLPRPRPRPDNWPRP,0.000556
15,RRIRLRPPRLPRPRPRPCCAPRP,0.694
16,RRIRGRPPRLPRPRPRPHDAPRP,0.00554
17,RRIRDRPPRLPRPRPRPMTEPRP,0.0462
18,RRIRLRPPRLPRPRPRPTWHPRP,0.174
19,RRIRFRPPRLPRPRPRPHFCPRP,-1.02
20,RRIRWRPPRLPRPRPRPDEFPRP,0.196
21,RRIRQRPPRLPRPRPRPDLVPRP,-0.0031
22,RRIRDRPPRLPRPRPRPHEQPRP,-0.0062
23,RRIRIRPPRLPRPRPRPTRWPRP,0.242
24,RRIRNRPPRLPRPRPRPYMAPRP,-0.0692
25,RRIRHRPPRLPRPRPRPDKRPRP,-0.0145

row,Sequence,shrunken log2 fold change
1,RRIRKRPPRLPRPRPRPQNAPRP,-0.0942
2,RRIRFRPPRLPRPRPRPCGDPRP,-0.01
3,RRIRMRPPRLPRPRPRPTAPPRP,0.905
4,RRIRGRPPRLPRPRPRPMWYPRP,0.293
5,RRIRMRPPRLPRPRPRPSTHPRP,0.021
6,RRIRDRPPRLPRPRPRPWLRPRP,0.081
7,RRIRDRPPRLPRPRPRPPCSPRP,0.126
8,RRIRPRPPRLPRPRPRPCRCPRP,0.00981
9,RRIRWRPPRLPRPRPRPCPFPRP,-0.646
10,RRIRSRPPRLPRPRPRPTANPRP,0.293
11,RRIRRRPPRLPRPRPRPKLKPRP,0.211
12,RRIRHRPPRLPRPRPRPMFIPRP,-0.0886
13,RRIRPRPPRLPRPRPRPFLQPRP,-0.207
14,RRIRSRPPRLPRPRPRPKEVPRP,-0.00238
15,RRIRKRPPRLPRPRPRPVKRPRP,0.0121
16,RRIRLRPPRLPRPRPRPVREPRP,0.185
17,RRIRGRPPRLPRPRPRPLGCPRP,1.27
18,RRIRKRPPRLPRPRPRPTVTPRP,0.229
19,RRIRFRPPRLPRPRPRPAWVPRP,0.255
20,RRIRQRPPRLPRPRPRPECTPRP,0.0484
21,RRIRERPPRLPRPRPRPWHNPRP,-0.344
22,RRIRRRPPRLPRPRPRPRNCPRP,-0.0356
23,RRIRARPPRLPRPRPRPCPPPRP,0.156
24,RRIRDRPPRLPRPRPRPSIPPRP,-0.43
25,RRIRFRPPRLPRPRPRPALRPRP,0.276

row,Sequence,shrunken log2 fold change
1,RRIRPRPPRLPRPRPRPYYKPRP,-0.215
2,RRIRNRPPRLPRPRPRPAYRPRP,0.105
3,RRIRMRPPRLPRPRPRPHYNPRP,-0.467
4,RRIRCRPPRLPRPRPRPGELPRP,0.139
5,RRIRKRPPRLPRPRPRPQDKPRP,-0.182
6,RRIRCRPPRLPRPRPRPHTQPRP,-0.55
7,RRIRIRPPRLPRPRPRPECYPRP,-0.146
8,RRIRMRPPRLPRPRPRPEHSPRP,0.234
9,RRIRCRPPRLPRPRPRPIYFPRP,-0.131
10,RRIRKRPPRLPRPRPRPYNSPRP,-0.49
11,RRIRERPPRLPRPRPRPWDPPRP,0.173
12,RRIRVRPPRLPRPRPRPMSRPRP,0.0217
13,RRIRARPPRLPRPRPRPGYTPRP,0.324
14,RRIRVRPPRLPRPRPRPVMNPRP,-0.19
15,RRIRFRPPRLPRPRPRPHTWPRP,-0.415
16,RRIRPRPPRLPRPRPRPVPIPRP,0.0844
17,RRIRVRPPRLPRPRPRPDCNPRP,-0.497
18,RRIRSRPPRLPRPRPRPKFWPRP,0.759
19,RRIRRRPPRLPRPRPRPVEPPRP,-0.0837
20,RRIRGRPPRLPRPRPRPARSPRP,0.686
21,RRIRNRPPRLPRPRPRPEPQPRP,1
22,RRIRTRPPRLPRPRPRPIFVPRP,0.144
23,RRIRHRPPRLPRPRPRPFNFPRP,-0.648
24,RRIRDRPPRLPRPRPRPVPSPRP,0.314
25,RRIRVRPPRLPRPRPRPLSWPRP,0.0819

row,Sequence,shrunken log2 fold change
1,RRIRLRPPRLPRPRPRPDRRPRP,0.0766
2,RRIRYRPPRLPRPRPRPWGVPRP,-0.242
3,RRIRIRPPRLPRPRPRPYPMPRP,-0.0519
4,RRIRFRPPRLPRPRPRPMCVPRP,-0.405
5,RRIRMRPPRLPRPRPRPQAEPRP,3.28
6,RRIRIRPPRLPRPRPRPRITPRP,-0.354
7,RRIRWRPPRLPRPRPRPPPVPRP,0.931
8,RRIRARPPRLPRPRPRPVLFPRP,0.268
9,RRIRMRPPRLPRPRPRPTPLPRP,1.01
10,RRIRERPPRLPRPRPRPYDHPRP,-0.397
11,RRIRNRPPRLPRPRPRPHITPRP,-0.399
12,RRIRDRPPRLPRPRPRPTENPRP,0.277
13,RRIRKRPPRLPRPRPRPTYPPRP,-0.00526
14,RRIRSRPPRLPRPRPRPECHPRP,0.411
15,RRIRNRPPRLPRPRPRPPNIPRP,-0.226
16,RRIRHRPPRLPRPRPRPWWQPRP,0.00354
17,RRIRSRPPRLPRPRPRPYQNPRP,-0.511
18,RRIRRRPPRLPRPRPRPIPRPRP,0.625
19,RRIRTRPPRLPRPRPRPFSMPRP,-0.0868
20,RRIRGRPPRLPRPRPRPLQVPRP,0.458
21,RRIRIRPPRLPRPRPRPGCWPRP,0.312
22,RRIRTRPPRLPRPRPRPNLAPRP,0.0471
23,RRIRMRPPRLPRPRPRPSYHPRP,-0.402
24,RRIRERPPRLPRPRPRPNVSPRP,-0.00968
25,RRIRCRPPRLPRPRPRPQLYPRP,-0.236

row,Sequence,shrunken log2 fold change
1,RRIRGRPPRLPRPRPRPVQRPRP,0.739
2,RRIRFRPPRLPRPRPRPCNIPRP,0.0928
3,RRIRRRPPRLPRPRPRPAAHPRP,0.361
4,RRIRPRPPRLPRPRPRPPELPRP,0.206
5,RRIRVRPPRLPRPRPRPDCCPRP,-0.0439
6,RRIRMRPPRLPRPRPRPMYFPRP,0.178
7,RRIRMRPPRLPRPRPRPYCPPRP,-0.066
8,RRIRMRPPRLPRPRPRPNQDPRP,-0.123
9,RRIRGRPPRLPRPRPRPNHVPRP,0.425
10,RRIRQRPPRLPRPRPRPLCKPRP,-0.406
11,RRIRKRPPRLPRPRPRPMSQPRP,-0.0623
12,RRIRFRPPRLPRPRPRPRNTPRP,-0.279
13,RRIRERPPRLPRPRPRPFTWPRP,-0.737
14,RRIRGRPPRLPRPRPRPDRNPRP,0.0753
15,RRIRVRPPRLPRPRPRPMTWPRP,-0.124
16,RRIRHRPPRLPRPRPRPVVLPRP,-0.298
17,RRIRMRPPRLPRPRPRPPRVPRP,1.23
18,RRIRVRPPRLPRPRPRPESWPRP,0.28
19,RRIRSRPPRLPRPRPRPGDVPRP,0.204
20,RRIRQRPPRLPRPRPRPLSYPRP,0.121
21,RRIRLRPPRLPRPRPRPNPKPRP,-0.0548
22,RRIRSRPPRLPRPRPRPESCPRP,0.181
23,RRIRDRPPRLPRPRPRPATCPRP,0.171
24,RRIRCRPPRLPRPRPRPSFPPRP,-0.608
25,RRIRNRPPRLPRPRPRPGKHPRP,-0.0999
